{"source": "patent US7229960B2", "about": "“Methods and compositions for inhibiting GRB7” (University of Vermont and State Agricultural College, priority 2000, dated 2007)", "key": {"[1]": {"molecular_target": "Grb7-SH2-GST (Homo sapiens, UniProt Q14451)", "sequence (Q14451 431-527 limits assumed)": "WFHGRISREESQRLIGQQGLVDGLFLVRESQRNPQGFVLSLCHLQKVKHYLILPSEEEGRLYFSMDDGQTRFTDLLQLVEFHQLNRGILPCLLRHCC", "assay": "Competition ELISA, free synthetic peptide versus Grb7 binding peptide-phage on Grb7-SH2-GST", "conditions": "for Inhibition of G7-8NA peptide-phage binding to Grb7-SH2 / Inhibition of G7-18 peptide-phage binding to Grb7-SH2: free synthetic peptide at 1, 10, 100 uM", "from_the_text": "The G7-18 (FIG. 5A) and G7-8NA (FIG. 5B) peptide-phage were concentrated with standard polyethylene glycol precipitation methods and added to each well (1×10^6 phage/well) in the presence of synthetic peptides or without (control). G7-18 peptide-phage competitors were G7-18, G7-18NATE and G7-8 free synthetic peptides (FIG. 5A). G7-8NA peptide-phage competitors were G7-8, G7-8NA and G7-8NATE free synthetic peptides (FIG. 5B). The synthetic peptides were mixed at different concentrations (1, 10, 100 uM) with peptide-phage before adding to Grb7-SH2-GST. Unbound phage were washed away with Tween-TBS buffer and bound phage were detected with anti-M13-horseradish peroxidase (Amersham-Pharmacia Biotech) and ABTS substrate (Calbiochem). Phage was detected by anti-M13-HRP antibody conjugate and detected using ABTS substrate. Plates were read at OD405."}, "[2]": {"molecular_target": "T1, SH2 domain of human Grb7 (Homo sapiens, UniProt Q14451)", "T1 construct": "The SH2 domain of human Grb7 containing a GST fusion tag; made in house; host or cells: E. coli", "T1 sequence (Q14451 431-527 limits assumed)": "as above", "assay": "Phage ELISA, peptide-phage binding to Grb7-SH2 domain-GST", "conditions": "for Relative binding affinity for Grb7: ELISA binding assay, comparison among G7BPs; for Effect of mutation of G7BP-4 phage clone on binding to Grb7-SH2-GST: phage ELISA, compared with G7BP-4", "source_text": "The G7BPs were identified using peptide phage display techniques. Two phage display libraries were created and screened that led to the identification of these peptides. The first library was a random peptide phage-display library containing more than 10^7 different cyclic decapeptides flanked at each end by regions of four amino acids, according to the following general motif: X4 C X10 C X4 (X=any amino acid residue, C=cysteine). […] The SH2 domain of human Grb7 containing a GST fusion tag was purified from an E. coli expression system. The random 10mer library was screened using standard phage display methodology (Smith GP. 1985. Science. 228:1315-7). The phage library was added to the target protein which was immobilized on glutathione Sepharose beads (Pharmacia). The unbound phage were removed with a series of washes and the bound phage were eluted by competitive elution with excess glutathione. These bound phage were allowed to infect E. coli in order to amplify the eluted phage. This screening process was repeated two times for a total of three rounds of screening. After the third round of screening, clones from the amplified phage were isolated and sequenced. Thirty-nine clones were characterized and all contained a Y-A/D/E-N motif, where the +2 position was enriched for alanine, aspartic acid, and glutamic acid. The second library, biased for this Y-A/D/E-N motif, was created in the same FuseV phage display system. This biased library contained over 10^6 different clones.\nAn ELISA binding assay was used to determine whether the peptide-phage bind specifically to the SH2 domain of Grb7, and not to the fusion protein (GST) or other SH2 domains that are homologous to Grb7. The overall methodology of an ELISA is well established. Four different proteins were bound to a polystyrene 96-well plate: Grb7-SH2 domain-GST, GST alone, Grb2-GST and BSA as a non-specific negative control. Preparations of the concentrated Grb7 peptide-phage clones were allowed to bind to these proteins. Non-specific binding was blocked by casein. Binding of phage was detected using an anti-phage antibody conjugated to horseradish peroxidase.\nMutational analysis of G7BP-4 has been conducted to determine which amino acid residues are important in peptide binding to Grb7-SH2 as well as to determine the size restriction of these peptides. The mutations for G7BP-4 include the following: (1) eliminating the 4 amino acids flanking the cysteines ([…], SEQ ID NO:35) referred to as G7BP4-No Arms (NA), (2) mutating the cysteines to serine residues ([…], SEQ ID NO:36), which are structurally very similar, referred to as G7BP4-Ser, (3) mutating the cysteines to valine residues ([…], SEQ ID NO:37), which is similar in structure and charge, and (4) a combination where the cysteines were mutated to serines and the 4 flanking amino acids were removed ([…], SEQ ID NO:38), referred to as G7BP-No Arms(NA)-Ser. The substitutions of valine and serine for cysteine will eliminate the peptides ability to form a disulfide loop. The mutations were created as a DNA oligo, ligated into the fuse5 vector, and expressed as a peptide-phage. The resultant phage were tested in a phage ELISA for their ability to bind to Grb7-SH2-GST. […] Variants of the G7BP-1, G7BP-2, G7BP-3, G7BP-5, G7BP-6 and G7BP-7 which similarly lack the 4 tracking amino acids on both ends can also bind specifically to Grb7. These peptides have the following amino acid sequences respectively: […]"}, "[3]": {"molecular_target": "association of Grb7 with the ErbB family of receptors (Homo sapiens, UniProt Q14451)", "sequence (Q14451 whole entry)": "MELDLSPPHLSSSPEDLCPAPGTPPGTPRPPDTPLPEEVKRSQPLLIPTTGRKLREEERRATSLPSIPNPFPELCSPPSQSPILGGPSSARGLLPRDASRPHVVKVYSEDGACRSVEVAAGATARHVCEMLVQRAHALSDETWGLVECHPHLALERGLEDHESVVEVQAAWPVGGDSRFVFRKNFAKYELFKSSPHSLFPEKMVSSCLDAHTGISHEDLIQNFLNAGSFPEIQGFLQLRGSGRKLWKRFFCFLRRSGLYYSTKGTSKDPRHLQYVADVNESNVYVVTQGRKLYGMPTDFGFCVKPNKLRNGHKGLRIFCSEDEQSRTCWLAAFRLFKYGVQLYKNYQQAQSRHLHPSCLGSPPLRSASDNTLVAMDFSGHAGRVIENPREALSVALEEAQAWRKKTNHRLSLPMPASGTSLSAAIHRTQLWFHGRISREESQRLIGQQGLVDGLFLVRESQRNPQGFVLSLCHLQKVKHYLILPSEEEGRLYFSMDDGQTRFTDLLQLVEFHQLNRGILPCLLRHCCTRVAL", "assay": "Co-immunoprecipitation of Grb7 with tyrosine phosphorylated ErbB family in heregulin-stimulated SKBR3 cell lysate", "conditions": "for Inhibition of association of Grb7 with the ErbB family: heregulin β1 stimulated SKBR3 lysate, anti-Grb7 IP, anti-phosphotyrosine at 185 kDa, densitometry", "method": "Two of the Grb7-binding peptides were tested for their ability to inhibit Grb7 from binding its known target molecules, such as ErbB2 and ErbB3, in whole cell extracts. Whole cell extracts were made from the cell line SKBR3, which overexpresses Grb7, ErbB2 and ErbB3. […] The immunoprecipitations were carried out with anti-Grb7 followed by western blot. The western blot was divided so the top half was incubated with anti-phosphotyrosine to detect the associated ErbB family that migrates at 185 kDa. The bottom half of western blot was incubated with anti-Grb7 as a loading control."}}, "note": "“Also recorded” adds a separate entry of the source. Non-standard residues stand in square brackets, D forms with d. No end group written: not given here. pY = N[C@@H](Cc1ccc(OP(=O)(O)O)cc1)C(=O)O"}
{"substance": "DpYVPML (D[pY]VPML) [N1480, reference compound]", "values": [{"measurement": "Inhibition of Grb7 binding peptide-phage binding to Grb7-SH2", "setting": "[1]; phage clone not specified, data not shown", "value": "No inhibition"}]}
{"substance": "C VFWG YAN DWL C (CVFGYANDWLC; Variant of G7BP-4) [G7BP-4NA]", "values": [{"measurement": "Relative binding affinity for Grb7", "setting": "[2]", "value": "lesser affinity"}, {"measurement": "Effect of mutation of G7BP-4 phage clone on binding to Grb7-SH2-GST", "setting": "[2]", "value": "did not effect its ability to bind"}, {"measurement": "Inhibition of G7-8NA peptide-phage binding to Grb7-SH2", "setting": "[1]", "value": "inhibition"}]}
{"substance": "RSTL C WFEG YDN TFP C KYFR (RSTLCWFEGYDNTFPCKYFR; Peptide sequence from FuseV Phage Display) [G7BP-5]", "values": [{"measurement": "Inhibition of G7-18 peptide-phage binding to Grb7-SH2", "setting": "[1]", "value": "inhibition"}, {"measurement": "Level of inhibition of Grb7 co-immunoprecipitation with the ErbB family", "setting": "[3]; 100 uM, data not shown", "value": "same levels of inhibition"}]}
{"substance": "^VFWG YAN DWL C^ (VFWGYANDWLC; cyclised thioether; Variant G7BP-4NATE)", "values": [{"measurement": "Inhibition of G7-8NA peptide-phage binding to Grb7-SH2", "setting": "[1]; listed as G7-8NATE", "value": "inhibition; also recorded: to a lesser extent than seen with the disulfide containing peptides"}]}
{"substance": "GVSNVVFGYANDWLVSDYS (Variant of G7BP-4) [SEQ ID NO:37, G7BP-4 with cysteines mutated to valine]", "values": [{"measurement": "Effect of mutation of G7BP-4 phage clone on binding to Grb7-SH2-GST", "setting": "[2]", "value": "reducing the binding capacity"}]}
{"substance": "Y1139 peptide: the Y1139 ErbB2-site peptide when it is phosphorylated (PQPEYVNQPD; not fully specified (residue 5))", "values": [{"measurement": "Inhibition of association of Grb7 with the ErbB family", "setting": "[3]", "value": "does compete"}]}
{"substance": "SVFGYANDWLS (Variant of G7BP-4) [G7BP-No Arms(NA)-Ser]", "values": [{"measurement": "Effect of mutation of G7BP-4 phage clone on binding to Grb7-SH2-GST", "setting": "[2]", "value": "reducing the binding capacity"}]}
{"substance": "GVSNSVFGYANDWLSSDYS (Variant of G7BP-4) [G7BP4-Ser]", "values": [{"measurement": "Effect of mutation of G7BP-4 phage clone on binding to Grb7-SH2-GST", "setting": "[2]", "value": "reducing the binding capacity"}]}
{"substance": "GVSN C VFWG YAN DWL C SDYS (GVSNCVFWGYANDWLCSDYS; Peptide sequence from FuseV Phage Display) [G7BP-4]", "values": [{"measurement": "Relative binding affinity for Grb7", "setting": "[2]", "value": "higher affinity"}, {"measurement": "Inhibition of G7-8NA peptide-phage binding to Grb7-SH2", "setting": "[1]", "value": "inhibition"}, {"measurement": "Inhibition of G7-18 peptide-phage binding to Grb7-SH2", "setting": "[1]; listed as G7-8", "value": "inhibits; also recorded: inhibition"}]}
{"substance": "PQPEYVNQPD (Non-phosphorylated peptide which mimics ErbB2 site) [Y 139]", "values": [{"measurement": "Inhibition of association of Grb7 with the ErbB family", "setting": "[3]", "value": "showed no competition"}]}
